From paper PMC7301157

Molecular target: Clb3-Cdk1 (S. cerevisiae) (UniProt P24870)
UniProt P24870, sequence (P24870 whole entry, chain 1 of 2): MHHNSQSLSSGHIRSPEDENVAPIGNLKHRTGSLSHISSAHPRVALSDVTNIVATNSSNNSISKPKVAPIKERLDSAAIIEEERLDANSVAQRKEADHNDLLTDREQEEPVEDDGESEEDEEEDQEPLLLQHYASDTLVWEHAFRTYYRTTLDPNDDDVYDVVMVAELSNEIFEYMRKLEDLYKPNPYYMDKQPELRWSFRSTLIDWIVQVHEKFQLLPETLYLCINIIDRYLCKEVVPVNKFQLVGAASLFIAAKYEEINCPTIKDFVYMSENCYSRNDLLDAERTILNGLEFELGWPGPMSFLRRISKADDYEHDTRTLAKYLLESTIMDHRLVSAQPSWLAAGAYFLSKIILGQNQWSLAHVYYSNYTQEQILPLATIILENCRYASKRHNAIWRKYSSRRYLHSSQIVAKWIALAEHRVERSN
UniProt P24870, sequence (P00546 whole entry, chain 2 of 2, further chain): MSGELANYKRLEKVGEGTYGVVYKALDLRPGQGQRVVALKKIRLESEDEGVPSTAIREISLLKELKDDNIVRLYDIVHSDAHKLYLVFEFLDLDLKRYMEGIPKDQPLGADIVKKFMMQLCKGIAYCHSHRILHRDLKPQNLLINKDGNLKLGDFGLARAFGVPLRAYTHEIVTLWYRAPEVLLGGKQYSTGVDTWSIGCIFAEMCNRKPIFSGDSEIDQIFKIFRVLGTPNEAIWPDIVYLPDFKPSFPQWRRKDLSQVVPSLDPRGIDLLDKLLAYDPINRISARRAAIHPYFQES

Substance: Sic1(1–33 SPxA) model substrate with PPKGPNF (from UniProt P38634 1-33)
- increase of the phosphorylation rate of the model substrate by Clb3-Cdk1: 65 fold
